Reference: patent publication US20260001927A1

Molecular target: IL-10 receptors IL-10RA and IL-10RB engineered into U2OS osteosarcoma cells (UniProt Q13651)
Assay: cell-based or functional assay

EC50, luminescence from ligand-induced IL-10RA/IL-10RB receptor dimerization in engineered U2OS cells: 0.0915 nM
Substance: recombinant human IL-10 (rhIL-10) (from UniProt P22301 19-178) (ligand)
